Results as given in patent US20060099689.

B1: murine caspase 7 (protein)
chain 1: AKPDRSSIISSILLKKKRNASAGPVRTGRDRVPTYLYRMDFQKMGKCIIINNKNFDKATGMDVRNGTDKDAGALFKCFQNLGFEVTVHNDCSCAKMQDLLRKASEEDHSNSACFACVLLSHGEEDLIYGKDGVTPIKDLTAHFRGDRCKTLLEKPKLFFIQACRGTELDDGIQAD
chain 2: ANPRNKIPVEADFLFAYSTVPGYYSWRNPGKGSWFVQALCSILNEHGKDLEIMQILTRVNDRVARHFESQSDDPRFNEKKQIPCMVSMLTKELYFSR
B2: murine Caspase-3 (protein)
chain 1: SGIYLDSSYKMDYPEMGICIIINNKNFHKSTGMSSRSGTDVDAANLRETFMGLKYQVRNKNDLTREDILELMDSVSKEDHSKRSSFVCVILSHGDEGVIYGTNGPVELKKLTSFFRGDYCRSLTGKPKLFIIQACRGTELDCGIETD
chain 2: SGTDEEMACQKIPVEADFLYAYSTAPGYYSWRNSKDGSWFIQSLCSMLKLYAHKLEFMHILTRVNRKVATEFESFSLDSTFHAKKQIPCIVSMLTKELYFYH

How the values were obtained:
[1] = target: fusion protein of GST and mLIF with only the DEVD site in the linker (L0: DEVD), P09056
[2] = target: fusion protein of GST and mLIF where the DEVD site is preceded by a GPGS sequence (L1: GPGSDEVD), P09056
[3] = target: the 20 fusion proteins of the formula H-GST-DEVD/X-mLIF, where X is any of the possible 20 amino acids
[4] = target: H-GST-DEVD/S-mLIF, P09056

Protein | efficiency of cleavage (H-GST-DEVD/mLIF, P09056) | processing of the fusion protein (gel, FIG. 3b) (GST-C-hIFNα) | processing yield (densitometric scanning of the gel) [1] | percent of fusion product processed (densitometric scanning of the gel) [2] | percent of fusion protein processed (2 microgram enzyme on 10 microgram substrate) (MBP-L0-hIFNalpha) | cleavage of P1′ variants (gel, FIG. 6) [3] | amount of enzyme sufficient to process 10 microgram of fusion protein (H-GST-DEVD/mLIF, P09056) | percent of fusion protein processed (50 ng enzyme, 45 minutes) (H-GST-DEVD/mLIF, P09056) | time needed for processing (H-GST-DEVD/mLIF, P09056) | amount of enzyme sufficient to process 10 microgram of fusion protein [4] | time needed for processing [4]
B1 | the murine caspase 7 was not as active as the murine caspase 3 and more enzyme needed to be added to obtain the same efficiency of cleavage |  |  |  |  |  |  |  |  |  | 
B2 |  | Caspase-3 on the other hand gave a high yield of processing even after only 45 minutes of incubation | only 10% processing yield was seen under these conditions when using the L0 linker | 90% of the fusion product containing L1 was processed | 2 microgram of caspase 3 is needed to process only 50% of 10 microgram of MBP-L0-hIFNalpha | all amino acids in the P1′ position could be processed by Caspase-3 | as little as 50 ng of enzyme is sufficient to process 10 microgram of protein | An amount of 50 ng is sufficient to process >90% of 10 microgram of a GST-mLIF fusion protein | the reaction was finished after 45 minutes when using Caspase-3 | as little as 50 ng of enzyme is sufficient to process 10 microgram of protein | the reaction was finished after 45 minutes when using Caspase-3
